Laboratory results reported in the supplement of paper PMC9732359.
± gives the uncertainty stated by the source.

Test: protein stability index of a GFP-peptide fusion (yeast GPS) (PSI 1-4); higher = more stable; sorted into four equal gates, so the index is relative within each strain
Procedure, shortened: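 Yeast carrying a pooled library were grown to mid-log phase in leucine-free medium. Each library plasmid expresses Cherry and has a tiled 17-residue yeast protein peptide fused downstream of GFP. Cells were sorted into four equal gates by GFP/Cherry ratio, and plasmids from each gate were PCR-amplified, Illumina-sequenced and assigned to strains by barcode. Summing, across gates, the read frequency times the gate number gave each peptide's protein stability index.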

Sequence	protein stability index (doa10∆)	protein stability index (pdr5∆)	protein stability index (san1∆)	protein stability index (ubr1∆)
FKSPIDNSESHPFIPLL [RRP6]	1.95 ± 0.07	2.23 ± 0.053	2.03 ± 0.075	1.82 ± 0.052
FKSVLPIVLLNTLRKCY [UBP6]	1.26 ± 0.11	1.23 ± 0.071	1.12 ± 0.16	1.18 ± 0.12
FLDSQRVWAEYATKRQE [PRP8]	1.54 ± 0.078	2 ± 0.07	1.92 ± 0.097	2.07 ± 0.083
FLKEVLSDLSSPVQDWN [YML103C/NUP188]	2.92 ± 0.088	3.03 ± 0.097	2.76 ± 0.11	2.96 ± 0.068
FLKLANGGKFSKSNLIH [RGR1]	2.65 ± 0.049	2.55 ± 0.061	2.87 ± 0.077	2.79 ± 0.059
FLMGIFNSVVNLSRYPK [MTR3]	2.6 ± 0.091	2.5 ± 0.089	2.49 ± 0.13	2.32 ± 0.13
FLNTPNNNINENELFND [SSN2]	2.94 ± 0.059	3.06 ± 0.05	2.86 ± 0.054	2.88 ± 0.055
FLQRVRVWEYRQKNVIH [RPL15A]	1.77 ± 0.24	1.72 ± 0.085		2.02 ± 0.19
FLSLLNLATKGMVKLNE [REC8]	2.77 ± 0.07	1.59 ± 0.055	1.6 ± 0.078	1.58 ± 0.045
FLVLYDVKTAEEASQLI [NUT1]	1.45 ± 0.047	1.93 ± 0.077	2.78 ± 0.061	3.01 ± 0.047
FMAFINACAKYGRDDME [ISW2]	2.77 ± 0.2			
FMDVITLDATNENFRLV [RPS4A]		3.44 ± 0.28	2.72 ± 0.25	3 ± 0.18
FMGTAFNQEGDYNFKYG [PRP8]	3.02 ± 0.11	3.1 ± 0.09	3.34 ± 0.098	3.18 ± 0.072
FNIISMTLKEMYQMITM [SMC4]	1.92 ± 0.074	1.97 ± 0.054	2.22 ± 0.075	2.15 ± 0.042
FNKYADPTLTTTTSFTT [RPN4]	2.35 ± 0.035	2.57 ± 0.042	2.26 ± 0.04	2.48 ± 0.029
FNNGDDDDYGDEEDPNE [RPC31]	3.25 ± 0.15	2.36 ± 0.17	2.98 ± 0.088	
FNRALDQSISKLQSWDK [NNF1]	1.63 ± 0.066	1.49 ± 0.068	1.51 ± 0.085	1.78 ± 0.051
FNTEAEQTVSAVTEATS [RGR1]	2.67 ± 0.28	3.41 ± 0.15		
FNYQGDELVLNFENDNE [REC8]	2.9 ± 0.18	3.25 ± 0.17	2.79 ± 0.11	2.63 ± 0.068
FPESIWKDFTVEIAFLF [YCG1]	2.25 ± 0.06	2.43 ± 0.05	2.33 ± 0.067	2.29 ± 0.049
FPFVLKVDNDLRIELQS [SRB8]	2.98 ± 0.12	3.05 ± 0.1	2.61 ± 0.098	3.31 ± 0.14
FPPPSVAARAEILRIHS [RPT6]	1.72 ± 0.074	2.5 ± 0.085	1.54 ± 0.12	1.74 ± 0.046
FPSIPLPINGPITNKER [RPC31]	2.23 ± 0.058	2.37 ± 0.064	2.17 ± 0.082	2.56 ± 0.11
FPVDPTTPVKLGPGIYC [RRP40]	2.41 ± 0.058	2.48 ± 0.056	2.4 ± 0.052	2.2 ± 0.047
FPVSLSQPSKKSFANHT [SIR4]	2.82 ± 0.051	2.87 ± 0.046	3.01 ± 0.054	3 ± 0.039

Sequence	protein stability index (doa10∆)	protein stability index (pdr5∆)	protein stability index (san1∆)	protein stability index (ubr1∆)
FQDYLTQQAVNLEKNYL [IRR1]	2.15 ± 0.11	2.12 ± 0.11	2.02 ± 0.16	1.96 ± 0.11
FQEGVVVAKKDFNQAKH [RPS10A]	2.1 ± 0.27	2.92 ± 0.27	2.91 ± 0.16	2.79 ± 0.12
FQKFLTGHPKGAAGAWM [FAS2]	1.31 ± 0.25			1.56 ± 0.18
FQLLEPLSTYNKNGNAV [PGD1]	2.81 ± 0.058	2.93 ± 0.057	2.77 ± 0.05	2.74 ± 0.036
FQNSKSASLFKQRKNPR [RPL24A]	2.11 ± 0.097	2.44 ± 0.077	2.49 ± 0.1	1.85 ± 0.053
FQTIFSKQDLIHSLIPV [SIN4]	1.93 ± 0.046	1.9 ± 0.064	1.66 ± 0.11	1.7 ± 0.05
FQTPFRRRREGKTDYYQ [RPL5]		3.31 ± 0.12	2.97 ± 0.12	3.03 ± 0.11
FREWQYFKLSITSFDQD [POP8]	1.94 ± 0.052	2.53 ± 0.06	2.52 ± 0.061	2.51 ± 0.045
FRHHVQIQQQQQKQQQQ [SNF5]	2.71 ± 0.17		3.07 ± 0.13	2.57 ± 0.083
FRVNNASINTSATVKTS [ECM29]			1.95 ± 0.17	
FRYITTWENEFLDSQRV [PRP8]	2.77 ± 0.065	2.69 ± 0.059	2.48 ± 0.061	3.03 ± 0.046
FSISYKPPTQKTDTKVS [SRP21]	2.24 ± 0.037	2.15 ± 0.042	1.98 ± 0.059	2.11 ± 0.033
FSKKGNEPLSEIEIEGV [YAR002W/NUP60]	2.72 ± 0.11	3.17 ± 0.14	3.04 ± 0.08	3.15 ± 0.1
FSQFWYWFPLAHFLSLS [RPN2]	1.66 ± 0.044	1.32 ± 0.045	1.21 ± 0.11	1.19 ± 0.038
FTAGARAKIVKAGGECI [RPL18A]	1.29 ± 0.081	1.27 ± 0.067	1.18 ± 0.17	1.13 ± 0.061
FTITVARKYLQTRWGLP [FAS2]	1.44 ± 0.092	1.29 ± 0.1	1.36 ± 0.21	1.96 ± 0.29
FTKYKPARSSSLRSNVV [YAR002W/NUP60]	1.79 ± 0.046	2.44 ± 0.045	2.17 ± 0.07	2.7 ± 0.04
FTNGVLAVTNLLIISCI [YML031W/NDC1]	1.89 ± 0.18	1.85 ± 0.17	1.79 ± 0.14	
FVCEKSIEFAKREKRVF [RPN6]				2.41 ± 0.25
FVCRGMAATQTIEQSPR [ECM29]	1.7 ± 0.063	1.93 ± 0.062	1.58 ± 0.23	1.56 ± 0.054
FVDENTFQRVCQYMVAC [RPN1]	3.09 ± 0.074	2.59 ± 0.072	2.77 ± 0.095	2.99 ± 0.091
FVEEQNVYVLPKNLLKK [PRP8]	2.54 ± 0.056	2.5 ± 0.045	2.54 ± 0.07	2.87 ± 0.059
FVFTNEPLTEIKNVIVS [RPP0]	1.84 ± 0.057	2.68 ± 0.089	3.12 ± 0.076	2.73 ± 0.077
FVKPGTALDAEGAARGT [DIS3]	3.1 ± 0.13	3.4 ± 0.2	3.24 ± 0.095	3.15 ± 0.097
FVNETPRVIEPVYTAQW [PRP8]	1.57 ± 0.16	2.31 ± 0.15	2.19 ± 0.16	1.19 ± 0.1

Sequence	protein stability index (doa10∆)	protein stability index (pdr5∆)	protein stability index (san1∆)	protein stability index (ubr1∆)
FVNGVWHGVHRNPARLM [RPB2]	1.68 ± 0.11	1.44 ± 0.067	3.39 ± 0.058	1.5 ± 0.042
FVSNMGFDIQKSCEPVS [SIR4]	2.06 ± 0.066	2.05 ± 0.12	1.68 ± 0.24	2.12 ± 0.075
FVSSGFDTSIKLDIISD [RPN14]	2.39 ± 0.045	2.53 ± 0.047	2.23 ± 0.057	2.44 ± 0.035
FVSYFGKQIKSTIYNWG [YML103C/NUP188]	1.67 ± 0.11	1.39 ± 0.071	1.47 ± 0.099	1.6 ± 0.066
FYKNKYSSKPYKVDNMT [RPN2]	2.44 ± 0.067	2.84 ± 0.072	2.79 ± 0.081	2.1 ± 0.075
FYVQDVYKDNLSFIQVR [RPO31]	1.98 ± 0.049	1.69 ± 0.05	1.92 ± 0.068	1.88 ± 0.041
GAAPYAAKLKQTENDLK [RPT1]	2.06 ± 0.14	2.35 ± 0.17	2.31 ± 0.24	2.93 ± 0.19
GAGSIFTSHTRLRQGAA [RPL2A]	3.05 ± 0.1	3.2 ± 0.088	3.17 ± 0.049	3.25 ± 0.072
GALPPDLSLIVKARHGG [CYT1]	1.83 ± 0.23	1.97 ± 0.14		2.23 ± 0.17
GAMTPEEIFFKSVRILK [RPC40]	2.9 ± 0.12	3.28 ± 0.14	2.96 ± 0.14	3.22 ± 0.093
GAVIQLLKSTGLHPFEV [RPB4]	3.32 ± 0.13	3.19 ± 0.14	3.07 ± 0.2	2.99 ± 0.084
GCIKIYSSRVDSVTTET [BRN1]	2.43 ± 0.14	2.52 ± 0.13	2.35 ± 0.21	2.12 ± 0.17
GCVNSLISGPRNQILVS [YMR129W/POM152]		1.36 ± 0.22		
GDDESKIPAVEYFGGES [FAS1]		3.17 ± 0.29	2.97 ± 0.2	
GDIESLFEQLQTVSNKE [SRP54]	3.08 ± 0.098	2.87 ± 0.079	3.18 ± 0.045	3.12 ± 0.046
GDLASLVLLNGRLRNKS [RPP1]	2.83 ± 0.054	2.85 ± 0.041	2.83 ± 0.04	2.81 ± 0.038
GDQFLRYVNLLGVTYSS [PRE4]	2.27 ± 0.1	2.33 ± 0.062	2.1 ± 0.075	2.02 ± 0.042
GDRGALARASGNYVIII [RPL2A]	2.82 ± 0.11	2.81 ± 0.11	2.84 ± 0.11	2.75 ± 0.14
GDRQRLGEEHPLQVARC [RPT1]	1.43 ± 0.097	1.32 ± 0.19	3.25 ± 0.22	1.53 ± 0.15
GDVSSGLFEKSTVSANH [BRN1]	2.84 ± 0.12	3.31 ± 0.094	2.74 ± 0.11	
GDYSQATVLSRKILKKT [RPN5]	2.68 ± 0.054	2.87 ± 0.067	2.75 ± 0.06	2.95 ± 0.051
GEIGDFFSSDWRFLQIL [POP1]	2.73 ± 0.089	2.79 ± 0.09	2.94 ± 0.066	2.55 ± 0.093
GEIQLLFQRQKLHEFYL [IRR1]	2.71 ± 0.12	2.96 ± 0.075	2.63 ± 0.061	2.9 ± 0.16
